The record followed here is the supplement of paper PMC9112550, “Optimization of the antimicrobial peptide Bac7 by deep mutational scanning” (BMC Biology, 2022).
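Also: peptides expressed intracellularly from a pBAD plasmid library in pooled LB shake-flask culture, induced with 0.3% L-arabinose, DNA abundance read by NGS, three biological replicates, DESeq2 with apeglm shrinkage.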

The data set concerns Escherichia coli TOP10. Description: shrunken log2 fold change of peptide-encoding DNA abundance (4.5 h post-induction vs induction); higher = less antimicrobial activity (less host growth inhibition). The conditions noted are these: time post-induction: 4.5 h; library: site-saturation at positions 5, 18, 19, 20.
In the case of RRIRNRPPRLPRPRPRPNIAPRP, the “shrunken log2 fold change” value is -0.352.
The result for RRIRGRPPRLPRPRPRPFNFPRP reads 0.0755; that for RRIRLRPPRLPRPRPRPVYFPRP, -0.455; that for RRIRGRPPRLPRPRPRPFGHPRP, -0.164.
Then RRIRTRPPRLPRPRPRPFIRPRP, with 0.00496; and RRIRSRPPRLPRPRPRPVIAPRP, with 0.053.
Turning to RRIRHRPPRLPRPRPRPNVTPRP, the “shrunken log2 fold change” value was -0.0118.
The result for RRIRYRPPRLPRPRPRPKNKPRP reads -0.444.
Take RRIRFRPPRLPRPRPRPIYFPRP: the “shrunken log2 fold change” value was -0.09.
The result for RRIRDRPPRLPRPRPRPDHTPRP reads 0.0303; that for RRIRSRPPRLPRPRPRPSLIPRP, -0.0623.
For RRIRVRPPRLPRPRPRPYWEPRP, the “shrunken log2 fold change” value was -0.508.
Then RRIRHRPPRLPRPRPRPSEWPRP, with -0.0167; and RRIRERPPRLPRPRPRPELHPRP, with 0.0652; and RRIRFRPPRLPRPRPRPDNVPRP, with -0.336.
As to RRIRKRPPRLPRPRPRPSGRPRP, the “shrunken log2 fold change” value was determined as 0.288.
The result for RRIRERPPRLPRPRPRPDGHPRP reads -0.00149; that for RRIRDRPPRLPRPRPRPDWSPRP, 0.147; that for RRIRIRPPRLPRPRPRPTGKPRP, -0.129.
As for RRIRERPPRLPRPRPRPLAWPRP, the “shrunken log2 fold change” value was 0.039.
Then RRIRWRPPRLPRPRPRPPFHPRP, with 0.0947; and RRIRVRPPRLPRPRPRPRHQPRP, with -0.138.
With RRIRSRPPRLPRPRPRPFLSPRP, the “shrunken log2 fold change” value was -0.063.
The result for RRIRKRPPRLPRPRPRPGENPRP reads 0.318; that for RRIRCRPPRLPRPRPRPIPCPRP, -0.489; that for RRIRTRPPRLPRPRPRPKKPPRP, -0.0293.
As for RRIRYRPPRLPRPRPRPCVPPRP, the “shrunken log2 fold change” value is -0.0398.
The result for RRIRLRPPRLPRPRPRPVPIPRP reads 0.125; that for RRIRARPPRLPRPRPRPENFPRP, 0.0336; that for RRIRYRPPRLPRPRPRPLPWPRP, -0.132.
Regarding RRIRKRPPRLPRPRPRPWEEPRP, the “shrunken log2 fold change” value was -0.000921.
As to RRIRNRPPRLPRPRPRPMTYPRP, the “shrunken log2 fold change” value is -0.0655.
The result for RRIRCRPPRLPRPRPRPIVIPRP reads -1.09; that for RRIRQRPPRLPRPRPRPRCNPRP, -0.515; that for RRIRWRPPRLPRPRPRPTAPPRP, 0.481.
The result for RRIRSRPPRLPRPRPRPQRDPRP reads -0.117; that for RRIRQRPPRLPRPRPRPLRNPRP, 0.121; that for RRIRYRPPRLPRPRPRPQCIPRP, -0.0693.
Then RRIRYRPPRLPRPRPRPVFRPRP, with -0.258.
In the case of RRIRRRPPRLPRPRPRPHCVPRP, the “shrunken log2 fold change” value is -0.0665.
Consider RRIRDRPPRLPRPRPRPAMQPRP, for which the “shrunken log2 fold change” value came out at 0.194.
Then RRIRSRPPRLPRPRPRPDMPPRP, with -0.0754; and RRIRDRPPRLPRPRPRPATWPRP, with 0.754.
The result for RRIRERPPRLPRPRPRPRHKPRP reads -0.0631.
Then RRIRYRPPRLPRPRPRPHMCPRP, with -0.0704; and RRIRVRPPRLPRPRPRPACSPRP, with -0.0142.
For RRIRKRPPRLPRPRPRPMMKPRP, the “shrunken log2 fold change” value amounted to 1.05.
Then RRIRHRPPRLPRPRPRPQQAPRP, with -0.00588; and RRIRNRPPRLPRPRPRPNKKPRP, with -0.198.
Then RRIRGRPPRLPRPRPRPKTQPRP, with 0.929.
Then RRIRMRPPRLPRPRPRPDWDPRP, with 0.211; and RRIRCRPPRLPRPRPRPTTDPRP, with -0.0121; and RRIRGRPPRLPRPRPRPCHQPRP, with -0.0488.
As to RRIRHRPPRLPRPRPRPLGFPRP, the “shrunken log2 fold change” value stood at 0.114.
Then RRIRARPPRLPRPRPRPLKQPRP, with 0.469.
In the case of RRIRNRPPRLPRPRPRPVMIPRP, the “shrunken log2 fold change” value was -0.311.
The result for RRIRARPPRLPRPRPRPVVDPRP reads 0.399; that for RRIRNRPPRLPRPRPRPRILPRP, -0.0548; that for RRIRSRPPRLPRPRPRPIPPPRP, -0.0431.
For the sequence RRIRKRPPRLPRPRPRPPEWPRP, the “shrunken log2 fold change” value was 1.19.
Consider RRIRPRPPRLPRPRPRPHCEPRP, for which the “shrunken log2 fold change” value is 0.308.
Then RRIRVRPPRLPRPRPRPFWEPRP, with -0.0891; and RRIRMRPPRLPRPRPRPYVRPRP, with -0.313.
The result for RRIRLRPPRLPRPRPRPCLSPRP reads 0.00058; that for RRIRCRPPRLPRPRPRPVCCPRP, 0.0914.
Then RRIRGRPPRLPRPRPRPFAVPRP, with 0.396; and RRIRMRPPRLPRPRPRPDIKPRP, with 1.51.
For RRIRVRPPRLPRPRPRPVEQPRP, the “shrunken log2 fold change” value was -0.0734.
The result for RRIRSRPPRLPRPRPRPGQNPRP reads 0.323.
Regarding RRIRPRPPRLPRPRPRPIPVPRP, the “shrunken log2 fold change” value is -0.402.
Then RRIRPRPPRLPRPRPRPACIPRP, with -0.25; and RRIRSRPPRLPRPRPRPGSCPRP, with 0.0634; and RRIRERPPRLPRPRPRPGYFPRP, with -0.0348.
Then RRIRRRPPRLPRPRPRPAEWPRP, with 0.136; and RRIRKRPPRLPRPRPRPPCQPRP, with 0.47; and RRIRCRPPRLPRPRPRPFYLPRP, with -0.564.
The result for RRIRLRPPRLPRPRPRPKDPPRP reads -0.221; that for RRIRIRPPRLPRPRPRPRASPRP, -0.195; that for RRIRARPPRLPRPRPRPYIPPRP, -0.805.
As to RRIRPRPPRLPRPRPRPAFVPRP, the “shrunken log2 fold change” value worked out at 0.149.
Then RRIRERPPRLPRPRPRPNGQPRP, with 0.0342; and RRIRDRPPRLPRPRPRPQDKPRP, with -0.592; and RRIRPRPPRLPRPRPRPPRIPRP, with 0.233.
Then RRIRQRPPRLPRPRPRPKFFPRP, with -0.0285; and RRIRTRPPRLPRPRPRPMGVPRP, with -0.174.
The result for RRIRKRPPRLPRPRPRPPCLPRP reads 0.123; that for RRIRTRPPRLPRPRPRPGWNPRP, -0.039.
For RRIRGRPPRLPRPRPRPYKAPRP, the “shrunken log2 fold change” value is -0.354.
The result for RRIRGRPPRLPRPRPRPSATPRP reads 3.09; that for RRIRWRPPRLPRPRPRPNFVPRP, 0.292.
The result for RRIRSRPPRLPRPRPRPTASPRP reads 0.116; that for RRIRERPPRLPRPRPRPHKCPRP, 0.0924; that for RRIRCRPPRLPRPRPRPTACPRP, -0.0786.
For the sequence RRIRLRPPRLPRPRPRPPTCPRP, the “shrunken log2 fold change” value was found to be 0.192.
Consider RRIRNRPPRLPRPRPRPTNTPRP, for which the “shrunken log2 fold change” value was -0.34.
In the case of RRIRSRPPRLPRPRPRPMNSPRP, the “shrunken log2 fold change” value was -0.776.
Regarding RRIRPRPPRLPRPRPRPYHPPRP, the “shrunken log2 fold change” value was -0.246.
RRIRDRPPRLPRPRPRPTYCPRP: the “shrunken log2 fold change” value was -0.27.
Then RRIRLRPPRLPRPRPRPQWQPRP, with 0.0949.
The result for RRIRIRPPRLPRPRPRPCRVPRP reads -1.39; that for RRIRMRPPRLPRPRPRPERFPRP, 0.0214; that for RRIRMRPPRLPRPRPRPALHPRP, 0.791.
The result for RRIRLRPPRLPRPRPRPVEYPRP reads -0.294; that for RRIRMRPPRLPRPRPRPDNVPRP, -0.0207; that for RRIRVRPPRLPRPRPRPYKVPRP, -0.0222.
In the case of RRIRKRPPRLPRPRPRPKQYPRP, the “shrunken log2 fold change” value was -0.222.
Then RRIRFRPPRLPRPRPRPLACPRP, with -0.162; and RRIRTRPPRLPRPRPRPRTGPRP, with 0.312; and RRIRGRPPRLPRPRPRPSEWPRP, with 0.393.
Then RRIRFRPPRLPRPRPRPMCEPRP, with -0.236; and RRIRLRPPRLPRPRPRPDVWPRP, with 0.127.
Then RRIRERPPRLPRPRPRPIALPRP, with -0.0132.
Regarding RRIRDRPPRLPRPRPRPHAPPRP, the “shrunken log2 fold change” value was found to be 0.144.
Then RRIRYRPPRLPRPRPRPYRWPRP, with -0.175.
In the case of RRIRIRPPRLPRPRPRPKIPPRP, the “shrunken log2 fold change” value was -0.212.
The result for RRIRVRPPRLPRPRPRPFARPRP reads 0.206; that for RRIRHRPPRLPRPRPRPLSLPRP, -0.492; that for RRIRFRPPRLPRPRPRPRRWPRP, 0.934.
The result for RRIRCRPPRLPRPRPRPVAKPRP reads 0.275; that for RRIRCRPPRLPRPRPRPRQSPRP, 0.139; that for RRIRQRPPRLPRPRPRPSKWPRP, -0.351.
Then RRIRFRPPRLPRPRPRPTLQPRP, with -0.107; and RRIRKRPPRLPRPRPRPKHIPRP, with -0.0252.
Regarding RRIRIRPPRLPRPRPRPKSGPRP, the “shrunken log2 fold change” value is -0.128.
Then RRIRRRPPRLPRPRPRPWPWPRP, with 0.0938.
